What all share (type): cell-based
Experiment [1] deals with HEK293T cells. The experiment is described as follows: cAMP production by Olfr609-derived receptors expressed in HEK293T cells, vanillic acid as agonist (Experiment 4). The procedure: (§1) Subsequently, the HEK293T cells were transfected with the above-mentioned three plasmids by a lipofection method. The HEK293T cells were incubated for 48 hours, and the β1AR consisting of the protein represented by SEQ ID NO: 03 was expressed on the cell membrane of the HEK293T cell.
(§2) The abbreviation “IBMX” means 3-isobutyl-1-methylxanthine. The IBMX is one of the phosphodiesterase inhibitors. The IBMX stabilizes cAMP, which is unstable.
The expression was conducted similarly to that of the step 2 of the reference example 1 except that the plasmid (Rho-myc-Olfr609) was used instead of the plasmid (β1AR). In this way, the Rho-myc-Olfr609 (SEQ ID NO: 64) was expressed on a cell membrane.
Instead of the eugenol aqueous solutions, the concentrations of the cAMP were measured similarly to the step 3 of the comparative example 1-1 except that vanillic acid aqueous solutions having concentrations of 0.30 μM, 1 μM, 3 μM, 10 μM, and 30 μM were used as agonists.
The expression was conducted similarly to that of the step 2 of the reference example 1 except that the plasmid (chimeraOlfr609) was used instead of the plasmid (β1AR). In this way, the chimeraOlfr609 (SEQ ID NO: 69) was expressed on a cell membrane.
The concentrations of the cAMP were measured similarly to the step 3 of the comparative example 4-1.

The subject of experiment [2] is HEK293T cells. The experiment is described as follows: cAMP production by Olfr15-derived receptors expressed in HEK293T cells, cyclohexanone as agonist (Experiment 3). As for the experimental part:
as §1, §2
The expression was conducted similarly to that of the step 2 of the reference example 1 except that the plasmid (Rho-myc-Olfr15) was used instead of the plasmid (β1AR). In this way, the Rho-myc-Olfr15 (SEQ ID NO: 58) was expressed on a cell membrane.
Instead of the eugenol aqueous solutions, the concentrations of the cAMP were measured similarly to the step 3 of the comparative example 1-1 except that cyclohexanone aqueous solutions having concentrations of 30 μM, 100 μM, 300 μM, 1000 μM, and 3000 μM were used as agonists.
The expression was conducted similarly to that of the step 2 of the reference example 1 except that the plasmid (chimeraOlfr15) was used instead of the plasmid (β1AR). In this way, the chimeraOlfr15 (SEQ ID NO: 60) was expressed on a cell membrane.
The concentrations of the cAMP were measured similarly to the step 3 of the comparative example 3-1.

Experiment [3] has as its system HEK293T cells. Put plainly: cAMP production by Olfr168-derived receptors expressed in HEK293T cells, 2-pentanone as agonist (Experiment 2). The procedure:
as §1, §2
The expression was conducted similarly to that of the step 2 of the reference example 1 except that the plasmid (Rho-myc-Olfr168) was used instead of the plasmid (β1AR). In this way, the Rho-myc-Olfr168 (SEQ ID NO: 49) was expressed on a cell membrane.
The concentrations of the cAMP were measured similarly to the step 3 of the comparative example 1-1 except that 2-pentanone aqueous solutions having concentrations of 30 μM, 100 μM, 300 μM, 1000 μM, and 3000 μM were used as agonists instead of the eugenol aqueous solutions.
The expression was conducted similarly to that of the step 2 of the reference example 1 except that the plasmid (chimeraOlfr168) was used instead of the plasmid (β1AR). In this way, the chimeraOlfr168 (SEQ ID NO: 51) was expressed on a cell membrane.
The concentrations of the cAMP were measured similarly to the step 3 of the comparative example 2-1.

B1: chimeraOlfr609: IC4 domain of the Rho-myc-Olfr609 substituted with that of the beta-1 adrenergic receptor (protein)
chain: MNGTEGPNFYVPFSNKTGVVEQKLISEEDLEFMSYSNHSSTSFFLTGLPGLETVYLWLSIPLCTMYIASLAGNGLILWVVKSEPSLHQPMYYFLSMLAVTDLGLSVSTLPTMLTIYMMGVSEVALDMCLAQLFFIHTFSIMESSVLLTMAFDRVVAISSPLHYATILTNPRVASLGMVILVRSIGLHIPAPIMLKKLPYCQKRHLSHSYCLHPDVMKLACTDTRINSAYGLFVVLSTLGVDSVLIVLSYGLILYTVLSIASKTERLKALNTCVSHICSVLLFYTPMIGLSMIHRFGKWASPCSRVLLSYLHFLTPPVLNPVVYTIKTKDFRKAFQRLLCCARRAACRRRAAHGDRPRASGCLARAGPPPSPGAPSDDDDDDAGATPPARLLEPWAGCNGGTTTVDSDSSLDEPGRQGFSSESKV
modifications: ChimeraOlfr 609
notes: IC4 domain of the Rho-myc-Olfr609 substituted with that of the beta-1 adrenergic receptor
Turning to B1, the “concentration of the cAMP” value in the experiment with HEK293T cells [1] (vanillic acid 0 μM) was 0.075; in the experiment on HEK293T cells [1] (vanillic acid 0.3 μM), 0.166; in the experiment with HEK293T cells [1] (vanillic acid 1 μM) it was 0.160; with HEK293T cells [1] (vanillic acid 3 μM), 0.192; with HEK293T cells [1] (vanillic acid 10 μM) it was 0.162; with HEK293T cells [1] (vanillic acid 30 μM), 0.187. Also, the “concentration of the cAMP compared with Rho-myc-Olfr609 (in words)” value in the experiment on HEK293T cells [1] (vanillic acid, Table 8) is on record as “much greater”.

B2: chimeraOlfr15: IC4 domain of the Rho-myc-Olfr15 substituted with that of the beta-1 adrenergic receptor (protein)
chain: MNGTEGPNFYVPFSNKTGVVEQKLISEEDLEFMEVDSNSSSGSFILMGVSDHPHLEIIFFAVILASYLLTLVGNLTIILLSRLDARLHTPMYFFLSNLSSLDLAFTTSSVPQMLKNLWGPDKTISYGGCVTQLYVFLWLGATECILLVVMAFDRYVAVCRPLHYMTVMNPRLCWGLAAISWLGGLGNSVIQSTFTLQLPFCGHRKVDNFLCEVPAMIKLACGDTSLNEAVLNGVCTFFTVVPVSVILVSYCFIAQAVMKIRSVEGRRKAFNTCVSHLVVVFLFYGSAIYGYLLPAKSSNQSQGKFISLFYSVVTPMVNPLIYTLRNKDFRKAFQRLLCCARRAACRRRAAHGDRPRASGCLARAGPPPSPGAPSDDDDDDAGATPPARLLEPWAGCNGGTTTVDSDSSLDEPGRQGFSSESKV
modifications: ChimeraOlfr15
notes: IC4 domain of the Rho-myc-Olfr15 substituted with that of the beta-1 adrenergic receptor
For the molecule B2, the “concentration of the cAMP” value in the experiment on HEK293T cells [2] (cyclohexanone 0 μM) was 0.0282; with HEK293T cells [2] (cyclohexanone 30 μM), 0.0280; in the experiment on HEK293T cells [2] (cyclohexanone 100 μM), 0.0250; in the experiment with HEK293T cells [2] (cyclohexanone 1000 μM), 0.0290; in the experiment on HEK293T cells [2] (cyclohexanone 3000 μM) it was 0.0916. For the same molecule, the “concentration of the cAMP compared with Rho-myc-olfr15 (in words)” value in the experiment with HEK293T cells [2] (cyclohexanone, Table 7) is “much greater”.

B3: Rho-myc-Olfr609: Rho-tag, myc epitope tag and EC1-IC4 domains of the Olfr609, mouse olfactory receptor for vanillic acid (protein)
chain: MNGTEGPNFYVPFSNKTGVVEQKLISEEDLEFMSYSNHSSTSFFLTGLPGLETVYLWLSIPLCTMYIASLAGNGLILWVVKSEPSLHQPMYYFLSMLAVTDLGLSVSTLPTMLTIYMMGVSEVALDMCLAQLFFIHTFSIMESSVLLTMAFDRVVAISSPLHYATILTNPRVASLGMVILVRSIGLHIPAPIMLKKLPYCQKRHLSHSYCLHPDVMKLACTDTRINSAYGLFVVLSTLGVDSVLIVLSYGLILYTVLSIASKTERLKALNTCVSHICSVLLFYTPMIGLSMIHRFGKWASPCSRVLLSYLHFLTPPVLNPVVYTIKTKQIRQRIWRIFRCGGRSIGHIQGH
modifications: Rho-myc-olfr609
In the case of B3, the “concentration of the cAMP” value in the experiment with HEK293T cells [1] (vanillic acid 0 μM) is 0.014; with HEK293T cells [1] (vanillic acid 0.3 μM), 0.070; in the experiment with HEK293T cells [1] (vanillic acid 1 μM) it was 0.076; in the experiment with HEK293T cells [1] (vanillic acid 3 μM) it was 0.127; in the experiment with HEK293T cells [1] (vanillic acid 10 μM) it was 0.067; in the experiment with HEK293T cells [1] (vanillic acid 30 μM), 0.071.

B4: Rho-myc-Olfr168: Rho-tag, myc epitope tag and EC1-IC4 domains of the Olfr168, mouse olfactory receptor for 2-pentanone (protein)
chain: MNGTEGPNFYVPFSNKTGVVEQKLISEEDLEFMEKWNQSSSDFILLGLLPQNQTGLLLMMLIILVFFLALFGNSAMIHLIRVDPRLHTPMYFLLSQLSLMDLMYISTTVPKMAFNFLSGQKNISFLGCGVQSFFFLTMAGSEGLLLASMAYDRFVAICHPLHYPIRMSKIMCLKMIIGSWILGSINSLAHSIYALHIPYCHSRSINHFFCDVPAMLPLACMDTWVYEYMVFVSTSLFLLLPFLGITASYGRVLFAVFHMRSKEGKKKAFTTCSTHLTVVTFYYAPFVYTYLRPRSLRSPTEDKILTVFYTILTPMLNPIIYSLRNKEVLGAMTRVLGTFSSMKP
modifications: Rho-myc-olfr168
Take B4: the “concentration of the cAMP” value in the experiment on HEK293T cells [3] (2-pentanone 0 μM) came out at 0.0215; with HEK293T cells [3] (2-pentanone 30 μM), 0.0170; with HEK293T cells [3] (2-pentanone 100 μM), 0.0170; in the experiment on HEK293T cells [3] (2-pentanone 300 μM) it was 0.0280; in the experiment with HEK293T cells [3] (2-pentanone 1000 μM), 0.0400; in the experiment with HEK293T cells [3] (2-pentanone 3000 μM), 0.0444.

B5: Rho-myc-Olfr15: Rho-tag, myc epitope tag and EC1-IC4 domains of the Olfr15, mouse olfactory receptor for cyclohexanone (protein)
chain: MNGTEGPNFYVPFSNKTGVVEQKLISEEDLEFMEVDSNSSSGSFILMGVSDHPHLEIIFFAVILASYLLTLVGNLTIILLSRLDARLHTPMYFFLSNLSSLDLAFTTSSVPQMLKNLWGPDKTISYGGCVTQLYVFLWLGATECILLVVMAFDRYVAVCRPLHYMTVMNPRLCWGLAAISWLGGLGNSVIQSTFTLQLPFCGHRKVDNFLCEVPAMIKLACGDTSLNEAVLNGVCTFFTVVPVSVILVSYCFIAQAVMKIRSVEGRRKAFNTCVSHLVVVFLFYGSAIYGYLLPAKSSNQSQGKFISLFYSVVTPMVNPLIYTLRNKEVKGALGRLLGKGRGAS
modifications: Rho-myc-Olfr15
Turning to B5, the “concentration of the cAMP” value is 0.0173 with HEK293T cells [2] (cyclohexanone 0 μM); 0.0180 in the experiment with HEK293T cells [2] (cyclohexanone 30 μM); 0.0210 in the experiment with HEK293T cells [2] (cyclohexanone 100 μM); 0.0280 in the experiment on HEK293T cells [2] (cyclohexanone 1000 μM); 0.0444 in the experiment with HEK293T cells [2] (cyclohexanone 3000 μM).

B6: chimeraOlfr168: Rho-myc-Olfr168 where the IC4 domain was substituted with that of the beta-1 adrenergic receptor (protein)
chain: MNGTEGPNFYVPFSNKTGVVEQKLISEEDLEFMEKWNQSSSDFILLGLLPQNQTGLLLMMLIILVFFLALFGNSAMIHLIRVDPRLHTPMYFLLSQLSLMDLMYISTTVPKMAFNFLSGQKNISFLGCGVQSFFFLTMAGSEGLLLASMAYDRFVAICHPLHYPIRMSKIMCLKMIIGSWILGSINSLAHSIYALHIPYCHSRSINHFFCDVPAMLPLACMDTWVYEYMVFVSTSLFLLLPFLGITASYGRVLFAVFHMRSKEGKKKAFTTCSTHLTVVTFYYAPFVYTYLRPRSLRSPTEDKILTVFYTILTPMLNPIIYSLRNKDFRKAFQRLLCCARRAACRRRAAHGDRPRASGCLARAGPPPSPGAPSDDDDDDAGATPPARLLEPWAGCNGGTTTVDSDSSLDEPGRQGFSSESKV
modifications: ChimeraOlfr168
notes: Rho-myc-Olfr168 where the IC4 domain was substituted with that of the beta-1 adrenergic receptor
For B6, the “concentration of the cAMP” value turned out to be 0.0187 with HEK293T cells [3] (2-pentanone 0 μM); 0.0220 in the experiment on HEK293T cells [3] (2-pentanone 30 μM); 0.0270 in the experiment with HEK293T cells [3] (2-pentanone 100 μM); 0.0520 in the experiment on HEK293T cells [3] (2-pentanone 300 μM); 0.0775 in the experiment with HEK293T cells [3] (2-pentanone 1000 μM); 0.0916 in the experiment on HEK293T cells [3] (2-pentanone 3000 μM). Further, in the experiment on HEK293T cells [3] (2-pentanone, Table 6), the “concentration of the cAMP compared with Rho-myc-Olfr168 (in words)” value is listed as “much greater”.
